{
  "source": "paper doi:10.1101/2020.02.21.960245",
  "about": "(bioRxiv, 2020)",
  "binders": {"B1": {"name": "HisFlagRec114 (natural protein)", "chain": "MYEYCSVVIKKYSKYTIPSFAPNGFQSMLEPPQIDKWQHLSANCTLQFRVLLMDSRQILINVVLNNSTLLENIRLPLGDNQDLIQFSCKSPIISCKYISEEFGPRMLRRFQMNLPNDVEFNRTVVSLKNLNFVLRTARTSIAQSTITSQVQGNNNGTKVCFTEGPKVSSYTNPNTQFQTQNMIMDFSQRYQEESERESNNRSNITLPHDSIQIAQQIWPNTDLNVVQSSQDLNTPMATQTVLGRPESLIVQPLEVSQSPPNTTNCLPNAENKKKKVDTTSDFTSRKEIALCKTGLLETIHIPKERESQMQSVTGLDATPTIIWSPGKDNTAKKNTSNKKNIDDKLTNPQKSGNTHTPDRNKEVLPNGTLNETRKEASPSEGLTIRVKNVNRNASRKISKRLIKEKLKDEEFMKWVNKVETVLNKMFEK"}},
  "key": {"SEC-MALS [1]": {"target": "the molecule itself", "assay": "SEC-MALS"}, "SEC-MALS [2]": {"target": "the molecule itself", "assay": "SEC-MALS", "remark": "listed apart in the source"}, "cross-linking": {"target": "the molecule itself", "assay": "cross-linking"}, "Rec114(375-428)": {"target": "T1, Rec114(375-428) (S. cerevisiae, UniProt P32841 375-428)", "T1 sequence": "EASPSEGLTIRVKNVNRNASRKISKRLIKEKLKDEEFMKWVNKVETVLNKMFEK", "assay": "SEC-MALS"}, "HisFlagRec114": {"target": "B1", "assay": "SEC-MALS"}, "untagged Rec114": {"target": "T2, untagged Rec114 (S. cerevisiae, UniProt P32841 1-428)", "T2 sequence": "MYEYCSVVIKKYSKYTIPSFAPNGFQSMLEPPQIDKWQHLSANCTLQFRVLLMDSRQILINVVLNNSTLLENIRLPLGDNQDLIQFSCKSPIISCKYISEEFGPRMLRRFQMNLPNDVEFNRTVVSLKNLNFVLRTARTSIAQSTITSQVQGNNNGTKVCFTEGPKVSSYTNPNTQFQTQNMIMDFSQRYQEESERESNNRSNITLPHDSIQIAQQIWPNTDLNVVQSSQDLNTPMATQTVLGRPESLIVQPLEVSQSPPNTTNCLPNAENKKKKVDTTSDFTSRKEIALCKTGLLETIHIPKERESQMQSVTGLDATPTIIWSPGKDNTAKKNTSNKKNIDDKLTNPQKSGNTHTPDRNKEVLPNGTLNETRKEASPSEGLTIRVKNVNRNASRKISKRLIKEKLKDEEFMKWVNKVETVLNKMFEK", "assay": "SEC-MALS"}},
  "note": "Where two headings read alike, the source gives them in different places.",
  "data": [
    {"binder": "untagged wild-type Rec114(325-428) (domain or fragment) PGKDNTAKKNTSNKKNIDDKLTNPQKSGNTHTPDRNKEVLPNGTLNETRKEASPSEGLTIRVKNVNRNASRKISKRLIKEKLKDEEFMKWVNKVETVLNKMFEK", "values": [
      {"measurement": "stoichiometry N", "setting": "SEC-MALS [1]", "result": 2}
    ]},
    {"binder": "coiled-coil domain of Mer2 (residues 77-227) (domain or fragment) IKVLNENSKTLCKSLNKFNQLLEQDAATNGNVKTLIKDLASQIENQLDKVSTAMLSKGDEKKTKSDSSYRQVLVEEISRYNSKITRHVTNKQHETEKSMRCTQEMLFNVGSQLEDVHKVLLSLSKDMHSLQTRQTALEMAFREKADHAYDR", "values": [
      {"measurement": "stoichiometry N", "setting": "SEC-MALS [1]", "result": 4}
    ]},
    {"binder": "untagged Mer2 (natural protein) MVARGRTDEISTDVSEANSEHSLMITETSSPFRSIFSHSGKVANAGALEESDKQILEWAGKLELESMELRENSDKLIKVLNENSKTLCKSLNKFNQLLEQDAATNGNVKTLIKDLASQIENQLDKVSTAMLSKGDEKKTKSDSSYRQVLVEEISRYNSKITRHVTNKQHETEKSMRCTQEMLFNVGSQLEDVHKVLLSLSKDMHSLQTRQTALEMAFREKADHAYDRPDVSLNGTTLLHDMDEAHDKQRKKSVPPPRMMVTRSMKRRRSSSPTLSTSQNHNSEDNDDASHRLKRAARTIIPWEELRPDTLESEL", "values": [
      {"measurement": "stoichiometry N", "setting": "SEC-MALS [2]", "result": 4}
    ]},
    {"binder": "B1", "values": [
      {"measurement": "binding result", "setting": "cross-linking", "result": "binds"}
    ]},
    {"binder": "MSRGKLEDMEQKETSEVDWIICFALIQSRNPTLWKRALSRKKG (domain or fragment)", "note": "[Mei4(1-43)]", "values": [
      {"measurement": "stoichiometry N", "setting": "Rec114(375-428)", "result": 2, "unit": "Rec114 per Mei4"}
    ]},
    {"binder": "MBPMei4 (natural protein) MSRGKLEDMEQKETSEVDWIICFALIQSRNPTLWKRALSRKKGDVEDVGALKSEKNLKINPRENSKHIYKWVAPFENGFLNNKSLFAHLEPIYNFLCQNKYKSFEDAVGLKELQSFSKDVSTADINNWFLPRYKILLKILSLKTKEIDFRGLSQVFQTLQILLVSHYSHRIDSDSSFKRTLIDVHVFNFIAKFLFNRILLKKNQNDPKWLQNFYDQGDGKHLCDKVDYKRLCSLHFTLIYSIINIQLIKIKTNQTFEPQILKYVSVLKLIEHILIIIESLIHVLIRFVSKHKLICINRKKAYCRVYLERELSLKKTYLKNFYSVISGVPEKELGGLLKILKIVILSLLETFESIEWQHLKPFLEKFPAHEISLQKKRKYIQAALLITAERNLIARFRLSRWFNETENI", "values": [
      {"measurement": "stoichiometry N", "setting": "HisFlagRec114", "result": 2, "unit": "Rec114 per Mei4"}
    ]},
    {"binder": "untagged Mei4 (natural protein) MSRGKLEDMEQKETSEVDWIICFALIQSRNPTLWKRALSRKKGDVEDVGALKSEKNLKINPRENSKHIYKWVAPFENGFLNNKSLFAHLEPIYNFLCQNKYKSFEDAVGLKELQSFSKDVSTADINNWFLPRYKILLKILSLKTKEIDFRGLSQVFQTLQILLVSHYSHRIDSDSSFKRTLIDVHVFNFIAKFLFNRILLKKNQNDPKWLQNFYDQGDGKHLCDKVDYKRLCSLHFTLIYSIINIQLIKIKTNQTFEPQILKYVSVLKLIEHILIIIESLIHVLIRFVSKHKLICINRKKAYCRVYLERELSLKKTYLKNFYSVISGVPEKELGGLLKILKIVILSLLETFESIEWQHLKPFLEKFPAHEISLQKKRKYIQAALLITAERNLIARFRLSRWFNETENI", "values": [
      {"measurement": "stoichiometry N", "setting": "untagged Rec114", "result": 2, "unit": "Rec114 per Mei4"}
    ]}
  ]
}
